# Source: the supplement of paper PMC9170038
# Tested on: MS2 coat protein
# Assay: apparent KD of MS2 coat protein; designed switch direction (-1 OFF switch, 1 ON switch): -1; higher = weaker reporter binding
# In short: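 SNAP-549-labelled MS2 coat protein was titrated, doubling from 0.7 or 1.5 nM to 3 µM, over designed RNA switches transcribed on Illumina chips by stalled E. coli RNA polymerase. Runs were done without input, with 200 uM small-molecule ligand, or with an oligonucleotide input. Apparent KD is the per-design median over clusters of curve-fitted normalised fluorescence.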
# [1] = input ligand: microRNA oligo, concentration not stated
# [2] = Eterna round: R95, input ligand: FMN 200 uM
# [3] = Eterna round: R95, input ligand: microRNA oligo, concentration not stated
# [4] = Eterna round: R95, input ligand: none
Sequence,apparent KD of MS2 coat protein (input ligand: FMN 200 uM) [nM],apparent KD of MS2 coat protein (input ligand: none) [nM],apparent KD of MS2 coat protein [1] [nM],apparent KD of MS2 coat protein [2] [nM],apparent KD of MS2 coat protein [3] [nM],apparent KD of MS2 coat protein [4] [nM]
"ACUGGUCGAGGAUAUACAUGAGGAUCACCCAUGUGGUCACGUGACUUCGGUCACGAAUGUAGAAGGCGACCAGU [E3/3-A5] (Eterna round: R97, puzzle: Exclusion 3)",61.4,188,,,,
"ACUGUUUGAUUCCUCUUAUACAUGAGGAUCACCCAUGUUAUCGAGGAUAUGCAUUAGAGUGUUUAGCAGAAGGCGAUGUAAUUG [JR_ExcNG3_Sub033] (Eterna round: R96, puzzle: Exclusion NG 3)",112,17.9,8.68,,,
"ACUUACUGAGGAUAUACAUAGAUAAACAUGAGGAUCACCCAUGUUCCUAUAAGUAUAUAUGUAGAAGGCAGAAGAA [JR_Ex5_Sub074] (Eterna round: R97, puzzle: Exclusion 5)",24.2,14.7,,,,
"ACUUAUAGAGGAUAUACAGAAUAUUACAUGAGGAUCACCCAUGUUCUUCAAUGUAUAUAAGUAGAAGGCUAAGGUU [Mat - Exclusion 5 - JL Mod - D5] (Eterna round: R97, puzzle: Exclusion 5)",282,33.4,,,,
"ACUUAUAGAGGAUAUACAGUUUAUUACAUGAGGAUCACCCAUGUUCUUCAAUGUCCUAAAGUAGAAGGCUAAGGAA [Mat - Exclusion 5 - Eli Mod - D12] (Eterna round: R97, puzzle: Exclusion 5)",18.8,16.2,,,,
"ACUUAUUGAGGAUAUACAGAUUAUUACAUGAGGAUCACCCAUGUUCUUCAAUGUAUAUAUGUAGAAGGCAGAGGAU [Mat - Exclusion 5 - JL Mod - D13] (Eterna round: R97, puzzle: Exclusion 5)",221,73.7,,,,
"ACUUAUUGAGGAUAUACAUAAAUUUACAUGAGGAUCACCCAUGUUCUUCUAUGUAUAUAUGUAGAAGGCAGAAGAG [Mat - Exclusion 5 - JL Mod - D33] (Eterna round: R97, puzzle: Exclusion 5)",30.1,17.2,,,,
"ACUUGCUUUUUGCUCGUCUUAUUUUUGUUGACGUUCUAUACAUGAGGAUCACCCAUGUUUUGUUCCUUGUGCUGGUA [JR_SV3TOV2_Sub073] (puzzle: Sensor v3, turn-off variant 2)",,,,169,183,166
AGAAAGCAAGGAUAUACAAAGAAACGACCGAAAGAAAAGAAACAUGAGGAUCACCCAUGUAGAAGGUGCAAGAA [JR_Exclu2_Sub031] (puzzle: Exclusion 2),,,,19,12.8,17.7
AGAAAGCAAGGAUAUACGAGGAGAAGGUGGAGAGUUAAAGGACAUGAGGAUCACCCAUGUAGAAGGUGCGAGAA [JR_Exclu2_Sub044] (puzzle: Exclusion 2),,,,122,67.1,72
"AGAAAGGCCCAUGGCCGCAAGCUUUUUGCUUGUCUUACCACAUGAGGAUCACCCAUGUGACAUGGGCUCCUGAUAAU [Atveuser] (puzzle: Sensor v3, turn-off variant 2)",,,,14.3,10.4,13.3
"AGAAGUAGAAACCGAUCCUACAUGAGGAUCACCCAUGUAGCAAGACGUGCACGCGAAGCUCGUCAGACUACCAGAAU [salish99_TOv1_r3_006] (puzzle: Sensor v3, turn-off variant 1)",,,,340,193,347
"AGAAGUAGUAACCGAUCCUACAUGAGGAUCACCCAUGUAGCUAGACGUGCACGCGAGGCUCGUCAGACUACCAGAUG [salish99_TOv1_r3_028] (puzzle: Sensor v3, turn-off variant 1)",,,,210,133,289
"AGACGAUCGUAGGAUAUCGGAAGGUCACUGGACUGAGAAGGACGAACAUGAGGAUCACCCAUGUGAUCUCUGGU [Eternabot (L2) Solution 43] (Eterna round: R97, puzzle: Exclusion 6)",779,734,,,,
"AGAGAAUACUCAGGAUAUCUUAAUAGAAAGAAUAGAGAAGGGAGACAUGAGGAUCACCCAUGUGAAGUCUUGAGACUACAUGGU [Prohibition 29 - Jieux - Exclusion NG 1] (Eterna round: R96, puzzle: Exclusion NG 1)",,,218,,,
"AGAGACCGAGGAUAUCCCAGAACUCACAUGAGGAUCACCCAUGUGUAGAUUGGGUGUCACGGAGAAGGCGGAUCGC [EX5 C.21] (Eterna round: R97, puzzle: Exclusion 5)",14,13.8,,,,
AGAGAGUCAGGAUAUCGAAGGGAGAGGAAAGGAGAGAGGGACGAGAAGGGACAUGAGGAUCACCCAUGUAGGUG [JR_Exclusion4)Sub016] (puzzle: Exclusion 4),,,,233,200,432
